Experimental data published in US20180140673A1.

These substances were tested against FGF receptor/BKL complex on HEK293 cells overexpressing human beta-klotho (BKL) (human) (UniProt Q86Z14) (assay: cell-based or functional assay).
Chain of FGF receptor/BKL complex on HEK293 cells overexpressing human beta-klotho (BKL) (human) (Q86Z14 whole entry, one chain of several): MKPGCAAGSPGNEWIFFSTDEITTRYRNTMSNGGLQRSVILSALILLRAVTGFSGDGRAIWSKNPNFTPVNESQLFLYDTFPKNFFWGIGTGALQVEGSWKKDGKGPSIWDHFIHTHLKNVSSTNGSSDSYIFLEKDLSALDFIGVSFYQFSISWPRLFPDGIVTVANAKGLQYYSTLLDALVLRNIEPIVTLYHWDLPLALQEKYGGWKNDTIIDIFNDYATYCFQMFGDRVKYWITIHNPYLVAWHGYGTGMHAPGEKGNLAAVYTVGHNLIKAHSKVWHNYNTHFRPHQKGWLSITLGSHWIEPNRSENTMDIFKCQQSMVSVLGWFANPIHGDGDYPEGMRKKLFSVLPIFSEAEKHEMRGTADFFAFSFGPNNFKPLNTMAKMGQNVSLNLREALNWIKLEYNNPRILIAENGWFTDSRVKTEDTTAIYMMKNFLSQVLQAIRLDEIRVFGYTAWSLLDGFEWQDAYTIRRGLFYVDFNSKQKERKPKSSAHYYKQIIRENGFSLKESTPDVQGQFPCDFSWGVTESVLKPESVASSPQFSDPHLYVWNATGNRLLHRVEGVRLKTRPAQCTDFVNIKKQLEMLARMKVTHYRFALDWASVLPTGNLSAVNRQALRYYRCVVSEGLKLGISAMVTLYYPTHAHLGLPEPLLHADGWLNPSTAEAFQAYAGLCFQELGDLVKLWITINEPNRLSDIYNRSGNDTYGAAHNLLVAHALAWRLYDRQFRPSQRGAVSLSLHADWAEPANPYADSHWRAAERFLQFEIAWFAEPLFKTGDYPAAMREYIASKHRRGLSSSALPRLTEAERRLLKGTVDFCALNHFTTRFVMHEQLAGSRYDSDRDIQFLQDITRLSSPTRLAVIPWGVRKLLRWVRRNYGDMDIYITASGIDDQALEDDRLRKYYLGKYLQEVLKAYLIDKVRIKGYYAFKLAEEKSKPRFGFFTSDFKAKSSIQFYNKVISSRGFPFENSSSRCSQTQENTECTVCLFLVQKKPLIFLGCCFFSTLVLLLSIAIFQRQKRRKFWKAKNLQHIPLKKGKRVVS

Chain of 4-[10-[[(1S)-4-[2-[2-[2-[2-[2-[2-[[(1S)-5-acetamido-1-carboxy-pentyl]amino]-2-oxo-ethoxy]ethoxy]ethylamino]-2-oxo-ethoxy]ethoxy]ethylamino]-1-carboxy-4-oxo-butyl]amino]-10-oxo-decoxy]benzoic acid]-Ala (Q9NSA1 other isoform, or with tags, fused parts or gaps limits assumed): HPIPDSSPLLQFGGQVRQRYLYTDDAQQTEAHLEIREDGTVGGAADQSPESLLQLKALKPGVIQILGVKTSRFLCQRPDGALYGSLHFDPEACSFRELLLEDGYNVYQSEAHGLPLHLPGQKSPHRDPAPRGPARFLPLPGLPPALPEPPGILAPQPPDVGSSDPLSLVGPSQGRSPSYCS
Chain of Ala[Gln121,Leu168,Cys173]FGF21 (Q9NSA1 other isoform, or with tags, fused parts or gaps limits assumed): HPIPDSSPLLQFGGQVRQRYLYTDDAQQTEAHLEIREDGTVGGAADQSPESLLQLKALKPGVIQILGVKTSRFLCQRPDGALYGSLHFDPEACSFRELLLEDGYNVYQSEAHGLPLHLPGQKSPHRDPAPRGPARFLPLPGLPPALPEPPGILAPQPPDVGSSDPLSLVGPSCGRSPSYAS
Chain of Ala[Gln121,Leu168,Cys174]FGF21 (Q9NSA1 other isoform, or with tags, fused parts or gaps limits assumed): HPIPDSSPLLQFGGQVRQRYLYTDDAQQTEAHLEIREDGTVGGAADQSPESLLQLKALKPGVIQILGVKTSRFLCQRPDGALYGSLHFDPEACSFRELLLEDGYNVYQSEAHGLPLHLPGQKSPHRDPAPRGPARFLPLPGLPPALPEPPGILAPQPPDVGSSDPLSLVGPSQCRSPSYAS
Chain of Ala[Gln121,Leu168,Cys177]FGF21 (Q9NSA1 other isoform, or with tags, fused parts or gaps limits assumed): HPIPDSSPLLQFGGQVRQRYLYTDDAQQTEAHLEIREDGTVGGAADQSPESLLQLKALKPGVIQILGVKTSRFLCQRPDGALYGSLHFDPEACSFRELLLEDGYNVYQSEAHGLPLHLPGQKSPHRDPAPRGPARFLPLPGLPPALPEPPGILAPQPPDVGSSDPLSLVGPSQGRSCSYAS
Chain of Ala[Gln121,Leu168,Cys169]FGF21 (Q9NSA1 other isoform, or with tags, fused parts or gaps limits assumed): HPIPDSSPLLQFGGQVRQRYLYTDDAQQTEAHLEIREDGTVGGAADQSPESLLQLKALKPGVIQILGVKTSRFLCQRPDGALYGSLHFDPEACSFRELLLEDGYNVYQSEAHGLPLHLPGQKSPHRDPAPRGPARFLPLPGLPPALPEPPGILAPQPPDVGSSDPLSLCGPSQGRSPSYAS
Chain of Ala[Gln121,Leu168,Cys172]FGF21 (Q9NSA1 other isoform, or with tags, fused parts or gaps limits assumed): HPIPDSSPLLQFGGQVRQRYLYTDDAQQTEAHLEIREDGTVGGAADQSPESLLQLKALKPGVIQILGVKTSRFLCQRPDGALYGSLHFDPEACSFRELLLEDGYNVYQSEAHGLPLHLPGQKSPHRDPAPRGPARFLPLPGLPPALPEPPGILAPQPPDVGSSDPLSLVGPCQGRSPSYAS
Chain of Ala[Gln121,Leu168,Cys175]FGF21 (Q9NSA1 other isoform, or with tags, fused parts or gaps limits assumed): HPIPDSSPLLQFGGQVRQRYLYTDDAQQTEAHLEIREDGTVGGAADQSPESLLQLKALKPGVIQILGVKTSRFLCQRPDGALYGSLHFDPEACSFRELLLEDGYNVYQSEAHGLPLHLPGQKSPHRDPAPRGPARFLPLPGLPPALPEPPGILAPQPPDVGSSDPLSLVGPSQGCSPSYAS
Chain of Ala[Gln121,Leu168,Cys170]FGF21 (Q9NSA1 other isoform, or with tags, fused parts or gaps limits assumed): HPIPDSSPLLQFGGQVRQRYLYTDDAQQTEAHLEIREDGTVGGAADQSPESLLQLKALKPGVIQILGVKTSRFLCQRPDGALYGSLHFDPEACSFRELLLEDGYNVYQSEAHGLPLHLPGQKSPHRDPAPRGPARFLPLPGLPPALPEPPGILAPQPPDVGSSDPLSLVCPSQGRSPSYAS

Substance | EC50 (0.1% HSA) (nM), pERK, HEK293/BKL cells | EC50 (nM), pERK, HEK293/BKL cells
4-[10-[[4-[2-[2-[2-[2-[2-[2-[[(1S)-5-acetamido-1-carboxy-pentyl]amino]-2-oxo-ethoxy]ethoxy]ethylamino]-2-oxo-ethoxy]ethoxy]ethylamino]-4-oxo-butyl]sulfonylamino]-10-oxo-decoxy]benzoic acid]-Ala[Gln121,Leu168,Cys180]FGF21 (from UniProt Q9NSA1 29-209) (ligand) | 4 nM | 3.2 nM
4-[10-[[(1S)-4-[2-[2-[2-[2-[2-[2-[[(1S)-5-acetamido-1-carboxy-pentyl]amino]-2-oxo-ethoxy]ethoxy]ethylamino]-2-oxo-ethoxy]ethoxy]ethylamino]-1-carboxy-4-oxo-butyl]amino]-10-oxo-decoxy]benzoic acid]-Ala[Gln121,Leu168,Cys180]FGF21 (from UniProt Q9NSA1 29-209) (ligand) | 3 nM | 5 nM
4-[10-[[(1S)-4-[2-[2-[2-[2-[2-[2-[[(1S)-5-acetamido-1-carboxy-pentyl]amino]-2-oxo-ethoxy]ethoxy]ethylamino]-2-oxo-ethoxy]ethoxy]ethylamino]-1-carboxy-4-oxo-butyl]amino]-10-oxo-decoxy]benzoic acid]-Ala[Gln121,Leu168,Cys181]FGF21 (from UniProt Q9NSA1 29-208) (ligand) | 138 nM | 26.4 nM
12-[[(1S)-4-[2-[2-[2-[2-[2-[2-[[(1S)-5-acetamido-1-carboxy-pentyl]amino]-2-oxo-ethoxy]ethoxy]ethylamino]-2-oxo-ethoxy]ethoxy]ethylamino]-1-carboxy-4-oxo-butyl]amino]-12-oxo-dodecanoic acid-Ala[Gln121,Leu168,Cys180]FGF21 (from UniProt Q9NSA1 29-209) (ligand) | 3.4 nM | 8.4 nM
16-[[4-[[(1S)-4-[2-[2-[2-[2-[2-[2-(2-acetamidoethylamino)-2-oxo-ethoxy]ethoxy]ethylamino]-2-oxo-ethoxy]ethoxy]ethylamino]-1-carboxy-4-oxo-butyl]carbamoyl]cyclohexyl]methylamino]-16-oxo-hexadecanoic acid-Ala[Gln121,Leu168,Cys180]FGF21 (from UniProt Q9NSA1 29-209) (ligand) | 3.2 nM | 3.5 nM
18-[[(1S)-4-[2-[2-[2-[2-[2-[2-(2-acetamidoethylamino)-2-oxo-ethoxy]ethoxy]ethylamino]-2-oxo-ethoxy]ethoxy]ethylamino]-1-carboxy-4-oxo-butyl]amino]-18-oxo-octadecanoic acid-Ala[Gln121,Leu168,Cys170]FGF21 (from UniProt Q9NSA1 29-209) (ligand) | 20 nM | 1 nM
18-[[(1S)-4-[2-[2-[2-[2-[2-[2-(2-acetamidoethylamino)-2-oxo-ethoxy]ethoxy]ethylamino]-2-oxo-ethoxy]ethoxy]ethylamino]-1-carboxy-4-oxo-butyl]amino]-18-oxo-octadecanoic acid-Ala[Gln121,Leu168,Cys174]FGF21 (from UniProt Q9NSA1 29-209) (ligand) | 1 nM | 1 nM
20-[[4-[[(1S)-4-[2-[2-[2-[2-[2-[2-[[(1S)-5-[(2-acetamido]-1-carboxy-pentyl]amino]-2-oxo-ethoxy]ethoxy]ethylamino]-2-oxo-ethoxy]ethoxy]ethylamino]-1-carboxy-4-oxo-butyl]carbamoyl]cyclohexyl]methylamino]-20-oxo-icosanoic acid-Ala[Gln121,Leu168,Cys180]FGF21 (from UniProt Q9NSA1 29-209) (ligand) | 35.5 nM | 4 nM
20-[[(1S)-4-[2-[2-[2-[2-[2-[2-[[(1S)-5-acetamido-1-carboxy-pentyl]amino]-2-oxo-ethoxy]ethoxy]ethylamino]-2-oxo-ethoxy]ethoxy]ethylamino]-1-carboxy-4-oxo-butyl]amino]-20-oxo-icosanoic acid-Ala[Gln121,Leu168,Cys180]FGF21 (from UniProt Q9NSA1 29-209) (ligand) | 52.5 nM | 6.1 nM
20-[[(1S)-4-[[(1S)-4-[2-[2-[2-[2-[2-[2-[[(1S)-5-acetamido-1-carboxy-pentyl]amino]-2-oxo-ethoxy]ethoxy]ethylamino]-2-oxo-ethoxy]ethoxy]ethylamino]-1-carboxy-4-oxo-butyl]amino]-1-carboxy-4-oxo-butyl]amino]-20-oxo-icosanoic acid-Ala[Gln121,Leu168,Cys180]FGF21 (from UniProt Q9NSA1 29-209) (ligand) | 65.5 nM | 10.3 nM
Ala[Gln121,Cys167,Leu168,]FGF21 (from UniProt Q9NSA1 29-209) (ligand) |  | 4 nM
Ala[Gln121,Cys168]FGF21 (from UniProt Q9NSA1 29-209) (ligand) |  | 492 nM
Ala[Gln121,Leu168,Cys170]FGF21 (from UniProt Q9NSA1 29-209) (ligand) |  | 7 nM
Ala[Gln121,Leu168,Cys172]FGF21 (from UniProt Q9NSA1 29-209) (ligand) |  | 5 nM
Ala[Gln121,Leu168,Cys173]FGF21 (from UniProt Q9NSA1 29-209) (ligand) |  | 4 nM
Ala[Gln121,Leu168,Cys175]FGF21 (from UniProt Q9NSA1 29-209) (ligand) |  | 11 nM
S{Beta-168}-[2-[2-[[2-[2-[2-[[2-[2-[2-[[(4S)-4-carboxy-4-(13-carboxytridecanoyl-amino)butanoyl]amino]ethoxy]ethoxy]acetyl]amino]ethoxy]ethoxy]acetyl]amino]-ethylamino]-2-oxoethyl]-Ala[Gln121,Cys168]FGF21 (from UniProt Q9NSA1 29-209) (ligand) | 4260 nM | 667 nM
S{Beta-169}-[2-[2-[[2-[2-[2-[[2-[2-[2-[[(4S)-4-carboxy-4-(15-carboxypentadecanoyl-amino)butanoyl]amino]ethoxy]ethoxy]acetyl]amino]ethoxy]ethoxy]acetyl]amino]-ethylamino]-2-oxoethyl]-Ala[Gln121,Leu168,Cys169]FGF21 (from UniProt Q9NSA1 29-209) (ligand) | 20 nM | 25 nM

Next, values leading:

EC50 (0.1% HSA) (nM), pERK, HEK293/BKL cells | EC50 (nM), pERK, HEK293/BKL cells | Substance
132 nM | 24.7 nM | 4-[10-[[4-[2-[2-[2-[2-[2-[2-[[(1S)-5-acetamido-1-carboxy-pentyl]amino]-2-oxo-ethoxy]ethoxy]ethylamino]-2-oxo-ethoxy]ethoxy]ethylamino]-4-oxo-butyl]sulfonylamino]-10-oxo-decoxy]benzoic acid-Ala[Gln121,Leu168,Cys181]FGF21 (from UniProt Q9NSA1 29-208) (ligand)
4.7 nM | 4 nM | 12-[[4-[[(1S)-4-[2-[2-[2-[2-[2-[2-(2-acetamidoethylamino)-2-oxo-ethoxy]ethoxy]ethylamino]-2-oxo-ethoxy]ethoxy]ethylamino]-1-carboxy-4-oxo-butyl]carbamoyl]cyclohexyl]methylamino]-12-oxo-dodecanoic acid-Ala[Gln121,Leu168,Cys180]FGF21 (from UniProt Q9NSA1 29-209) (ligand)
6.1 nM | 7.9 nM | 12-[[(1S)-4-[[(1S)-4-[2-[2-[2-[2-[2-[2-[[(1S)-5-acetamido-1-carboxy-pentyl]amino]-2-oxo-ethoxy]ethoxy]ethylamino]-2-oxo-ethoxy]ethoxy]ethylamino]-1-carboxy-4-oxo-butyl]amino]-1-carboxy-4-oxo-butyl]amino]-12-oxo-dodecanoic acid-Ala[Gln121,Leu168,Cys180]FGF21 (from UniProt Q9NSA1 29-209) (ligand)
2.1 nM | 4 nM | 16-[[4-[[(1S)-4-[2-[2-[2-[2-[2-[2-[[(1S)-5-[(2-acetamido]-1-carboxy-pentyl]amino]-2-oxo-ethoxy]ethoxy]ethylamino]-2-oxo-ethoxy]ethoxy]ethylamino]-1-carboxy-4-oxo-butyl]carbamoyl]cyclohexyl]methylamino]-16-oxo-hexadecanoic acid-Ala[Gln121,Leu168,Cys180]FGF21 (from UniProt Q9NSA1 29-209) (ligand)
4 nM | 2 nM | 16-[[(1S)-4-[2-[2-[2-[2-[2-[2-(2-acetamidoethylamino)-2-oxo-ethoxy]ethoxy]ethylamino]-2-oxo-ethoxy]ethoxy]ethylamino]-1-carboxy-4-oxo-butyl]amino]-16-oxo-hexadecanoic acid-Ala[Gln121,Leu168,Cys174]FGF21 (from UniProt Q9NSA1 29-209) (ligand)
14 nM | 4 nM | 18-[[4-[[(1S)-4-[2-[2-[2-[2-[2-[2-[[(1S)-5-[(2-acetamido]-1-carboxy-pentyl]amino]-2-oxo-ethoxy]ethoxy]ethylamino]-2-oxo-ethoxy]ethoxy]ethylamino]-1-carboxy-4-oxo-butyl]carbamoyl]cyclohexyl]methylamino]-18-oxo-octadecanoic acid-Ala[Gln121,Leu168,Cys180]FGF21 (from UniProt Q9NSA1 29-209) (ligand)
7.1 nM | 4.2 nM | (2S)-6-acetamido-2-[[2-[2-[2-[[2-[2-[2-[[(4S)-4-carboxy-4-(16-sulfohexadecanoylamino)butanoyl]amino]ethoxy]ethoxy]acetyl]amino]ethoxy]ethoxy]acetyl]amino]hexadecanoic acid-Ala[Gln121,Leu168,Cys180]FGF21 (from UniProt Q9NSA1 29-209) (ligand)
 | 22 nM | Ala[Gln121,Leu168,Cys169]FGF21 (from UniProt Q9NSA1 29-209) (ligand)
 | 5 nM | Ala[Gln121,Leu168,Cys174]FGF21 (from UniProt Q9NSA1 29-209) (ligand)
 | 416 nM | Ala[Gln121,Leu168,Cys177]FGF21 (from UniProt Q9NSA1 29-209) (ligand)
